Source: patent US20220073922

Columns and labels:
[1] = molecular target: T1, Angiopoietin-2 (Ang2) (Homo sapiens) (UniProt O15123); test: flow; conditions: 2'-F all nucleotides
T1 sequence: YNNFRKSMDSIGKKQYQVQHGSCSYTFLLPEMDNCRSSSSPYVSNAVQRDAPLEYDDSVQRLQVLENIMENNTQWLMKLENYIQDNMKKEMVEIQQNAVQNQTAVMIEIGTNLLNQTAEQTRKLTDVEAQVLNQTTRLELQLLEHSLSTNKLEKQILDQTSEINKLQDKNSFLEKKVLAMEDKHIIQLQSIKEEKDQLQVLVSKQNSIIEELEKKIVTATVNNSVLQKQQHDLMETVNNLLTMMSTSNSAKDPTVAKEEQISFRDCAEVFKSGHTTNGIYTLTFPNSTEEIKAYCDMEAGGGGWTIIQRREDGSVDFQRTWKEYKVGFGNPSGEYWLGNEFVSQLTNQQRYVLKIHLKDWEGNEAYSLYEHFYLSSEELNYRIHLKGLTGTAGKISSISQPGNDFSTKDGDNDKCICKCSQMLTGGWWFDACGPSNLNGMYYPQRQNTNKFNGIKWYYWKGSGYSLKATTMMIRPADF

[2] = molecular target: T2, VEGF-121 (VEGFA isoform 121) (Homo sapiens) (UniProt P15692); test: flow; conditions: 2'-F all nucleotides
T2 sequence: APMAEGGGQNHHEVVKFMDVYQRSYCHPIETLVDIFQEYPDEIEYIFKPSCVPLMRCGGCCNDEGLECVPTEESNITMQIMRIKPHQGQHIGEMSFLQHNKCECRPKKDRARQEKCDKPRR

[3] = tested on: T3, VEGF (isoform not given) (Homo sapiens), P15692-9; test: competition; conditions: 2'-F all positions; blocks VEGF-VEGFR2; isoform not stated
T3 sequence: T2 sequence

[4] = 1 hexaethylene glycol linker between aptamers [2'-F at all nucleotides 1-86, 1 hexaethylene glycol linker (H) between 38 and 39 left out]
[5] = 2 hexaethylene glycol linkers between aptamers [2'-F at all nucleotides 1-86, 2 hexaethylene glycol linkers (HH) between 38 and 39 left out]
[6] = 3 hexaethylene glycol linkers between aptamers [2'-F at all nucleotides 1-86, 3 hexaethylene glycol linkers (HHH) between 38 and 39 left out]
[7] = 4 hexaethylene glycol linkers between aptamers [2'-F at all nucleotides 1-86, 4 hexaethylene glycol linkers (HHHH) between 38 and 39 left out]
[8] = 5 hexaethylene glycol linkers between aptamers [2'-F at all nucleotides 1-86, 5 hexaethylene glycol linkers (HHHHH) between 38 and 39 left out]
[9] = 6 hexaethylene glycol linkers between aptamers [2'-F at all nucleotides 1-86, 6 hexaethylene glycol linkers (HHHHHH) between 38 and 39 left out]

With “CGCAUAGAUAAGCCAACAAACAUUCUCUGUUAGUAUUUUCUGCG [AMS0525.8]” the Kd ([1]; one internal hexaethylene glycol linker (H) [2'-F at 1-44, hexaethylene glycol linker H (left out) between C21 and A22], PBSMCT, 37 C) was 0.085 nM.
Sequence “CGCAUAGAUAAGCCAACAAAUUCUCUGUUAGUAUUUUCUGCG [AMS0525.7]” has a Kd ([1]; one internal hexaethylene glycol linker (H) [2'-F at 1-42, hexaethylene glycol linker H (left out) between A20 and U21], PBSMCT, 37 C) of 0.093 nM.
For “CGCUAGAUGGCUAACACUAUUGUGGAGAUGCACUAGCGCGCAUAGAUAAGCCAACAAACGUACAUUCUCUGUUAGUAUUUUCUGCG [AMSB103.1]”, the Kd [1, 4] was 0.026 nM and the Kd [2, 4] was 0.041 nM.
Work on “CGCUAGAUGGCUAACACUAUUGUGGAGAUGCACUAGCGCGCAUAGAUAAGCCAACAAACGUACAUUCUCUGUUAGUAUUUUCUGCG [AMSB103.2]” yielded a Kd [1, 5] of 0.034 nM and a Kd [2, 5] of 0.038 nM.
In the case of “CGCUAGAUGGCUAACACUAUUGUGGAGAUGCACUAGCGCGCAUAGAUAAGCCAACAAACGUACAUUCUCUGUUAGUAUUUUCUGCG [AMSB103.3]”, the Kd [1, 6] is reported as 0.031 nM and the Kd [2, 6] is reported as 0.036 nM.
For “CGCUAGAUGGCUAACACUAUUGUGGAGAUGCACUAGCGCGCAUAGAUAAGCCAACAAACGUACAUUCUCUGUUAGUAUUUUCUGCG [AMSB103.4]”, the Kd [1, 7] was 0.032 nM and the Kd [2, 7] was 0.041 nM.
In the case of “CGCUAGAUGGCUAACACUAUUGUGGAGAUGCACUAGCGCGCAUAGAUAAGCCAACAAACGUACAUUCUCUGUUAGUAUUUUCUGCG [AMSB103.5]”, the Kd [1, 8] is reported as 0.027 nM and the Kd [2, 8] is reported as 0.038 nM.
“CGCUAGAUGGCUAACACUAUUGUGGAGAUGCACUAGCGCGCAUAGAUAAGCCAACAAACGUACAUUCUCUGUUAGUAUUUUCUGCG [AMSB103.6]” gave a Kd [1, 9] of 0.034 nM and a Kd [2, 9] of 0.039 nM.
“CGCUAGAUGGCUAACACUAUUGUGGAGAUGCACUAGCGCGCAUAGAUAAGCCAACAAACGUACAUUCUCUGUUAGUAUUUUCUGCG [AMSB103]” showed an IC50 [3] of less than 0.1 nM.
